Test results taken from the supplement of paper PMC9170038.

Test system: MS2 coat protein
Experiment: apparent KD of MS2 coat protein; designed switch direction (-1 OFF switch, 1 ON switch): -1; higher = weaker reporter binding
Summary of the method: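 SNAP-549-labelled MS2 coat protein was titrated, doubling from 0.7 or 1.5 nM to 3 µM, over designed RNA switches transcribed on Illumina chips by stalled E. coli RNA polymerase. Runs were done without input, with 200 uM small-molecule ligand, or with an oligonucleotide input. Apparent KD is the per-design median over clusters of curve-fitted normalised fluorescence.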

[1] = input ligand: microRNA oligo, concentration not stated
[2] = Eterna round: R95, input ligand: microRNA oligo, concentration not stated
[3] = Eterna round: R95, input ligand: FMN 200 uM
[4] = Eterna round: R95, input ligand: none

ACAUUGAAUGUGAGGAUAUCGAUGUGAUGGGUUGUCGAGAAGGCACAUGAGGAUCACCCAUGUGGGAUGUAGCA [JR_BMEx4_Sub033] (Eterna round: R97, puzzle: Brourd's mod of Exclusion 4)
apparent KD of MS2 coat protein (input ligand: FMN 200 uM): 349 nM
apparent KD of MS2 coat protein (input ligand: none): 91.2 nM

GGAUAAAACUGAGGAUAUACGUAUCGCUAGCGAGUAGAAGGCAGACAUGAGGAUCACCCAUGUGAGUUCUCGAUAAGAAACACG [Prohibition 60 - Jieux - Exclusion NG 1] (Eterna round: R96, puzzle: Exclusion NG 1)
apparent KD of MS2 coat protein (input ligand: FMN 200 uM): 163 nM
apparent KD of MS2 coat protein [1]: 35.5 nM
apparent KD of MS2 coat protein (input ligand: none): 53.3 nM

UGUUGUUCAGGAUAUGAUGUAUAAUACAUGAGGAUCACCCAUGUAGAUCCUGAUUUGGCGUCAGAAGGGAAUGUUG [salish99_ex5_r4_106] (Eterna round: R97, puzzle: Exclusion 5)
apparent KD of MS2 coat protein (input ligand: FMN 200 uM): 41 nM
apparent KD of MS2 coat protein (input ligand: none): 33.2 nM

ACUUUUUGAGGAUAUACAUUUAUCCACAUGAGGAUCACCCAUGUACAAACAUGUAUUUGUGUAGAAGGCAGAAGAA [JR_Ex5_Sub069] (Eterna round: R97, puzzle: Exclusion 5)
apparent KD of MS2 coat protein (input ligand: FMN 200 uM): 54.5 nM
apparent KD of MS2 coat protein (input ligand: none): 60.7 nM

ACAUGAGGAUCACCCAUGUAAACGUAAUGGCUCAUGUAGAGUCAGGAUAUGCGUGGCGAACUCGCGCAGAAGGGACAAGACUGG [Deportation 22 - Jieux - Exclusion NG 3] (Eterna round: R96, puzzle: Exclusion NG 3)
apparent KD of MS2 coat protein (input ligand: FMN 200 uM): 30.4 nM
apparent KD of MS2 coat protein [1]: 23.7 nM
apparent KD of MS2 coat protein (input ligand: none): 28.6 nM

AAGCAGGUGUAGGCCGUCUACAUGAGGAUCACCCAUGUGCCUCAUCCACCCGGCACCCAAUAAAGCGGGCGCCGGGC [Teququ] (Eterna round: R96, puzzle: Sensor v2, turn-off variant)
apparent KD of MS2 coat protein (input ligand: FMN 200 uM): 113 nM
apparent KD of MS2 coat protein [1]: 65.3 nM
apparent KD of MS2 coat protein (input ligand: none): 103 nM

UCGCUGCGAGGAUAUACAUGAGGAUCACCCAUGUACGGGUCCGGGUCUUUGUCGAUUGGUAGAAGGCGCAGUGA [JL Laongeedie mod 10] (puzzle: Exclusion 3)
apparent KD of MS2 coat protein [2]: 50.3 nM

UUAAAUCAUGUAGGAUAUGCGUGGAGAAACUAUGCAGAAGGACAUGAGGAUCACCCAUGUGCUUCCGUCUGCGUACAGAUGGUA [Mat - Exclusion NG 1 - Mod of JL - D8] (Eterna round: R96, puzzle: Exclusion NG 1)
apparent KD of MS2 coat protein [1]: 21.1 nM

UGCAUGCUAGGAUAUACGAAACAUUAGGGUUCGUCGUAUGAACAUGAGGAUCACCCAUGUAGAAGGAGCGUGCU [Mod6 of JL-ex2-2.15 mat747 mod] (puzzle: Exclusion 2)
apparent KD of MS2 coat protein [2]: 16.8 nM

UCUGGUCGAGGAUAUACGUGAGGUGUUUCGGCACUAGGUCUACAUGAGGAUCACCCAUGUAGAAGGCGAUCAGA [EX2 #64] (Eterna round: R97, puzzle: Exclusion 2)
apparent KD of MS2 coat protein (input ligand: FMN 200 uM): 536 nM
apparent KD of MS2 coat protein (input ligand: none): 60.6 nM

CUAGCGAUUGUAGGAUAUCGGACUGUUUCAGUCUGAGAAGGACAUGAGGAUCACCCAUGUGAAGCUACGUGAGUAGCACGCUAG [JL ENG1 3.84] (Eterna round: R96, puzzle: Exclusion NG 1)
apparent KD of MS2 coat protein (input ligand: FMN 200 uM): 46.1 nM
apparent KD of MS2 coat protein [1]: 15.4 nM
apparent KD of MS2 coat protein (input ligand: none): 24.5 nM

ACAUGAGGAUCACCCAUGUCUGGCUGGUCCGUCUCGGCUGUCGAGGAUAUAGCUCGGUGUCCGCGCUAGAAGGCGGGAGCUGGU [Aenatbe mod 82] (Eterna round: R96, puzzle: Exclusion NG 3)
apparent KD of MS2 coat protein (input ligand: FMN 200 uM): 631 nM
apparent KD of MS2 coat protein [1]: 78 nM
apparent KD of MS2 coat protein (input ligand: none): 143 nM

AAUACACAUGAGGAUCACCCAUGUUAGGAUAUUCGCGGGAAAGCUGUCAAAACGCCGAGGAGAAGGAACAGGAA [Excls1-X] (puzzle: Exclusion 1)
apparent KD of MS2 coat protein [3]: 40 nM
apparent KD of MS2 coat protein [2]: 33.7 nM
apparent KD of MS2 coat protein [4]: 45.7 nM

UACGGGUCAGGAUAUGCGAGAGAGUGGGAAAUAGGAAGGUAGCAGAAGGGACAUGAGGAUCACCCAUGUGAGGC [JR_Exclu4_Sub099] (puzzle: Exclusion 4)
apparent KD of MS2 coat protein [2]: 23.8 nM

CAACAUGAGGAUCACCCAUGUGGCCCUACGUGCUGGCUCGGGCAGGAUAUUAACCAAUGAGUAGUUAAGAAGGGCUCGCAAGUA [Eternabot solution 14] (Eterna round: R96, puzzle: Exclusion NG 3)
apparent KD of MS2 coat protein (input ligand: FMN 200 uM): 223 nM
apparent KD of MS2 coat protein [1]: 40.6 nM
apparent KD of MS2 coat protein (input ligand: none): 76.6 nM

CCUCGACAUGAGGAUCACCCAUGUAAGGAUAUGUUGACGAGCCUGAAAAGGCUGGUCAACAGAAGGUAUAUGUA [Exclusion 1 (Mod 1b.1 solution 16 by Eternabot)] (Eterna round: R97, puzzle: Exclusion 1)
apparent KD of MS2 coat protein (input ligand: FMN 200 uM): 112 nM
apparent KD of MS2 coat protein (input ligand: none): 28.4 nM

GAAAAGGUAGGAUAUACGAAAAAAAAGGGUAGAAGAAAAACACAUGAGGAUCACCCAUGUAGAAGGACCAAAAG [salish99_ex2_r3_022] (puzzle: Exclusion 2)
apparent KD of MS2 coat protein [3]: 107 nM
apparent KD of MS2 coat protein [2]: 18.6 nM
apparent KD of MS2 coat protein [4]: 23.5 nM

ACAUGAGGAGAAGGAUAUCUUUAGAGGGUUACCAGAGAAGGUCUAACAUGAGGAUCACCCAUGUCAUGAGGGUCUUGAAUGUUG [10th something] (Eterna round: R96, puzzle: Exclusion NG 1)
apparent KD of MS2 coat protein (input ligand: FMN 200 uM): 145 nM
apparent KD of MS2 coat protein [1]: 151 nM
apparent KD of MS2 coat protein (input ligand: none): 140 nM

UGCGAAGAGUGAGGAUAUGUGCGACAAAGUUGCACAGAAGGCACAUGAGGAUCACCCAUGUGAGCUAGGUCGAAAGACCUAGCG [Omei Exc(NG)1 Av7] (Eterna round: R96, puzzle: Exclusion NG 1)
apparent KD of MS2 coat protein (input ligand: FMN 200 uM): 43.4 nM
apparent KD of MS2 coat protein [1]: 17.3 nM
apparent KD of MS2 coat protein (input ligand: none): 24.8 nM

GUUUUCAGACGGAGAUCCUACAUGAGGAUCACCCAUGUCUCACAAGCUAAUUGCUCGUCUUAUUCUCCUCUGUUCUC [Elimod 40 - Jieux - Sensor, turn-off variant 1] (Eterna round: R97, puzzle: Sensor, turn-off variant 1)
apparent KD of MS2 coat protein (input ligand: FMN 200 uM): 21.8 nM
apparent KD of MS2 coat protein (input ligand: none): 24.3 nM

GUGAGUGGUCAGGAUAUGCUGUACAAAAGUACAGCAGAAGGGAUUACAUGAGGAUCACCCAUGUUUACUUCAUG [Omei Ex6 B4] (Eterna round: R97, puzzle: Exclusion 6)
apparent KD of MS2 coat protein (input ligand: FMN 200 uM): 125 nM
apparent KD of MS2 coat protein (input ligand: none): 90.2 nM

ACAAGCAGAGAGUAAAUGGACAUGAGGAUCACCCAUGUGAGUCCAAGGAGAUAAGAUAUUAAAAAGGCUCGUCUUAU [AK-miRNA-r3-19] (Eterna round: R97, puzzle: Sensor, turn-off variant 1)
apparent KD of MS2 coat protein (input ligand: FMN 200 uM): 112 nM
apparent KD of MS2 coat protein (input ligand: none): 98.3 nM

UGUUGUCGCGUAGGAUAUGAGGAUCACCCAUAUAGAGGAUAUGAAAAGAAGGCUCUGAGGAUCACCCAGAAGGACGGGACAACU [pwkr exNG2 2xF5 2xFMN.24] (Eterna round: R96, puzzle: Exclusion NG 2)
apparent KD of MS2 coat protein (input ligand: FMN 200 uM): 1720 nM
apparent KD of MS2 coat protein [1]: 214 nM
apparent KD of MS2 coat protein (input ligand: none): 207 nM

CUAUCUUGCAAGGAUAUGCAAUUUAUUAUUUAUGCAGAAGGUGCUACAUGAGGAUCACCCAUGUUUCUGGGUUU [JR_E6_Sub046] (puzzle: Exclusion 6)
apparent KD of MS2 coat protein [2]: 117 nM

CAGUACUGAGGAUAUACAUGAGGAUCACCCAUGUGAGAGAUACUAAUGAGGUCGAUUAGUAGAAGGCAGUACUG [Mat X3R4 m4] (Eterna round: R97, puzzle: Exclusion 3)
apparent KD of MS2 coat protein (input ligand: FMN 200 uM): 240 nM
apparent KD of MS2 coat protein (input ligand: none): 17.5 nM

CAUACUAAAGUCAGGAUAUGCGGUCGAAUACGGGCGUAGAAGGGACAUGAGGAUCACCCAUGUAGAUAGUAAAG [EX-4 Malc #19] (puzzle: Brourd's mod of Exclusion 4)
apparent KD of MS2 coat protein [3]: 15.3 nM
apparent KD of MS2 coat protein [2]: 13.6 nM
apparent KD of MS2 coat protein [4]: 15.7 nM

AGGUCCUUCUGGAGACAUGAGGAUCACCCAUGUCGAGUCAGCGAGGAUAUCGGUUAAUAAUGUGAUGAGAAGGCGCAGACCGAU [Ex NG3 #53] (Eterna round: R96, puzzle: Exclusion NG 3)
apparent KD of MS2 coat protein (input ligand: FMN 200 uM): 15.5 nM
apparent KD of MS2 coat protein [1]: 8.55 nM
apparent KD of MS2 coat protein (input ligand: none): 11.3 nM

UCUGCCGCCGUGAGGAUAUGCCCGCGCGAACGCGGGCAGAAGGCACAUGAGGAUCACCCAUGUCCCGCGGUUUU [salish99_bmx4_r4_132] (Eterna round: R97, puzzle: Brourd's mod of Exclusion 4)
apparent KD of MS2 coat protein (input ligand: FMN 200 uM): 34.7 nM
apparent KD of MS2 coat protein (input ligand: none): 17.2 nM

GGGAAACAUGAGGAUCACCCAUGUCAGGAUAUCCGCUUUAAUUAAAUAAAUAAAUAAUGGAGAAGGGACAGCCC [-12.9, -10.5 kcal, 39% A] (Eterna round: R97, puzzle: Exclusion 1)
apparent KD of MS2 coat protein (input ligand: FMN 200 uM): 33.6 nM
apparent KD of MS2 coat protein (input ligand: none): 33.7 nM

GACUUCUCUGAGGAUAUUGCAUCAUACGAUCUAUAAGAAGGCAGAACAUGAGGAUCACCCAUGUGGGUUUCUAG [Bingo-Bango-28] (Eterna round: R97, puzzle: Exclusion 6)
apparent KD of MS2 coat protein (input ligand: FMN 200 uM): 70.2 nM
apparent KD of MS2 coat protein (input ligand: none): 38.3 nM

AUGCCACAUGAGGAUCACCCAUGUGAGGAUAUGCUAGUAUUCCUAACGGCCGAUGCAGGCAGAAGGCGCUCGGG [Eternabot (L1) Solution 73] (Eterna round: R97, puzzle: Exclusion 1)
apparent KD of MS2 coat protein (input ligand: FMN 200 uM): 19.5 nM
apparent KD of MS2 coat protein (input ligand: none): 24.5 nM

GGUGGGCUAGGAUAUGCUUUGGGCGGGCAUUCCUUCGAUAAACUUGAGGAUCACCCAAGUAGAAGGAGCUUGCC [salish99_ex2_r4_024] (Eterna round: R97, puzzle: Exclusion 2)
apparent KD of MS2 coat protein (input ligand: FMN 200 uM): 16.2 nM
apparent KD of MS2 coat protein (input ligand: none): 12.3 nM

AGGUGCUUCAGGAGACAUGAGGAUCACCCAUGUUGAGUUAGCGAGGAUAUCGGUAACCCAUGUGAUGAGAAGGCGCAAACCAAU [Ex NG3 #46] (Eterna round: R96, puzzle: Exclusion NG 3)
apparent KD of MS2 coat protein (input ligand: FMN 200 uM): 92.9 nM
apparent KD of MS2 coat protein [1]: 52.4 nM
apparent KD of MS2 coat protein (input ligand: none): 74.1 nM
